The record followed here is article PMC3795524.

Test [1] concerns the target KNH1144 SOSIP.IEGR G-MPER gp140 (uncleaved) (HIV-1 KNH1144 (subtype A)). Briefly: AUC.
Test [2] has the same target. Briefly: native gel or EMSA.
For test [3], the target named is KNH1144 SOSIP.R6 G-MPER gp140 (cleaved) (HIV-1 KNH1144 (subtype A)). Briefly: AUC.
For test [4] the target is unchanged. Nature of the test: native gel or EMSA. (In general: Mobility shift assays separate free from complexed probe on a gel.)

In the case of “KNH1144 SOSIP.IEGR G-MPER gp140 (uncleaved) (domain or fragment)”, the stoichiometry N in test [1] and in test [2] was 3 in each case.

With “KNH1144 SOSIP.R6 G-MPER gp140 (cleaved) (complex)”, the stoichiometry N in test [3] and in test [4] was 3 throughout.

As usually defined, the stoichiometry N is a count of units in the complex or per binding partner.
